Assay results: patent US20200031888

Molecular target: C3b (Comptech), P01024
Sequence (P01024 whole entry, looked up): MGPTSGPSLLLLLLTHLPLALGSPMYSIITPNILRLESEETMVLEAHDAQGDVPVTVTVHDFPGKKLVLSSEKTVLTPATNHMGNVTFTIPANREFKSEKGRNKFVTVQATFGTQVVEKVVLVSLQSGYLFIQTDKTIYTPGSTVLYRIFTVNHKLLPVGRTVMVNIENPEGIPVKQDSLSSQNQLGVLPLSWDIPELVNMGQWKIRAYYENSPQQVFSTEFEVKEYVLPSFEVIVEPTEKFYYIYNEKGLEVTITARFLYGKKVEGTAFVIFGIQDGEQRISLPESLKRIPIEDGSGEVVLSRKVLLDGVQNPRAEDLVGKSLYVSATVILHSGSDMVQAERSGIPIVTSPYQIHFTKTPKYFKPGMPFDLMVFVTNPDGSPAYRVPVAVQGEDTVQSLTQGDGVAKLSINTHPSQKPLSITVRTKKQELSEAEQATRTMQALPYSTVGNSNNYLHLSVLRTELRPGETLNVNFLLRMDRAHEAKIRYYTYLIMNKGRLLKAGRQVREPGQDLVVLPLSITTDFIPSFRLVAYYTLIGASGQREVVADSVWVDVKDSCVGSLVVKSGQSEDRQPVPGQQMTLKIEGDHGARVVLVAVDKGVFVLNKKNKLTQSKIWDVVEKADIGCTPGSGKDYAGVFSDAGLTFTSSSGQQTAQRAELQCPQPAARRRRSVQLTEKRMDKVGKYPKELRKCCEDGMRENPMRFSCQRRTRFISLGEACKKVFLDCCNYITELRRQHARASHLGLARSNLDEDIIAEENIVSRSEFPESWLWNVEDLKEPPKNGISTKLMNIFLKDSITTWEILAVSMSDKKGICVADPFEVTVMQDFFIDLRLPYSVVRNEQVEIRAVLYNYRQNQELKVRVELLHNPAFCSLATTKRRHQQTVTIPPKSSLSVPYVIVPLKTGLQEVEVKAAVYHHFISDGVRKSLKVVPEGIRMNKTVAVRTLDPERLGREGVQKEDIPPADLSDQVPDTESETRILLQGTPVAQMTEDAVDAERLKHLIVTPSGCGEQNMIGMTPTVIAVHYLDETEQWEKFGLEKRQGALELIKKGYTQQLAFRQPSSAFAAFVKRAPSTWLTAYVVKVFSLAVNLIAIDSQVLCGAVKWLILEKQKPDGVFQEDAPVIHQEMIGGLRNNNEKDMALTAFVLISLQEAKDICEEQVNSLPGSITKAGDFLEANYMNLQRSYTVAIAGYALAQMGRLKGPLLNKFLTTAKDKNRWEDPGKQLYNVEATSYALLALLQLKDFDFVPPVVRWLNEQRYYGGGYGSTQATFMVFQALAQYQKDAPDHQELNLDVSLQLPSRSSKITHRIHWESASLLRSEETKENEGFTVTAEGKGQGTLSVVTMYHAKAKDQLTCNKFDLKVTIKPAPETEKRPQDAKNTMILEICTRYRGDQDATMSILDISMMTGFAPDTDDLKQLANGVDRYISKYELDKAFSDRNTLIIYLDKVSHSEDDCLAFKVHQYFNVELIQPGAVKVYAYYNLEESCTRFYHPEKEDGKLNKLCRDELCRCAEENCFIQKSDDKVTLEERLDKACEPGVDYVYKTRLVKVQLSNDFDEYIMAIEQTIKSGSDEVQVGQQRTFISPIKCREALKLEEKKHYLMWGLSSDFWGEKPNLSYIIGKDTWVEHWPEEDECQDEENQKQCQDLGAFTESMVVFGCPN

B1: recombinant precursor Complement Factor I (pro-rCFI), His-tagged, expressed in CHO cells (protein)
chain: KVTYTSQEDLVEKKCLAKKYTHLSCDKVFCQPWQRCIEGTCVCKLPYQCPKNGTAVCATNRRSFPTYCQQKSLECLHPGTKFLNNGTCTAEGKFSVSLKHGNTDSEGIVEVKLVDQDKTMFICKSSWSMREANVACLDLGFQQGADTQRRFKLSDLSINSTECLHVHCRGLETSLAECTFTKRRTMGYQDFADVVCYTQKADSPMDDFFQCVNGKYISQMKACDGINDCGDQSDELCCKACQGKGFHCKSGVCIPSQYQCNGEVDCITGEDEVGCAGFASVTQEETEILTADMDAERRRIKSLLPKLSCGVKNRMHIRRKRIVGGKRAQLGDLPWQVAIKDASGITCGGIYIGGCWILTAAHCLRASKTHRYQIWTTVVDWIHPDLKRIVIEYVDRIIFHENYNAGTYQNDIALIEMKKDGNKKDCELPRSIPACVPWSPYLFQPNDTCIVSGWGREKDNERVFSLQWGEVKLISNCSKFYGNRFYEKEMECAGTYDGSIDACKGDSGGPLVCMDANNVTYVWGVVSWGENCGKPEFPGVYTKVANYFDWISYHVGRPFISQYNV
C3b cofactor assay, western blot: only cleaved FI has activity, and Pro-FI is inactive

B2: serum CFI (Comptech) (protein)
chain: B1 chain
C3b inactivation assay, positive control: iC3b cleaved by incubation with mature sCFI

B3: recombinant mature Complement Factor I made by in vitro furin cleavage of pro-rCFI (protein)
chain 1: KVTYTSQEDLVEKKCLAKKYTHLSCDKVFCQPWQRCIEGTCVCKLPYQCPKNGTAVCATNRRSFPTYCQQKSLECLHPGTKFLNNGTCTAEGKFSVSLKHGNTDSEGIVEVKLVDQDKTMFICKSSWSMREANVACLDLGFQQGADTQRRFKLSDLSINSTECLHVHCRGLETSLAECTFTKRRTMGYQDFADVVCYTQKADSPMDDFFQCVNGKYISQMKACDGINDCGDQSDELCCKACQGKGFHCKSGVCIPSQYQCNGEVDCITGEDEVGCAGFASVAQEETEILTADMDAERRRIKSLLPKLSCGVKNRMHI
chain 2: IVGGKRAQLGDLPWQVAIKDASGITCGGIYIGGCWILTAAHCLRASKTHRYQIWTTVVDWIHPDLKRIVIEYVDRIIFHENYNAGTYQNDIALIEMKKDGNKKDCELPRSIPACVPWSPYLFQPNDTCIVSGWGREKDNERVFSLQWGEVKLISNCSKFYGNRFYEKEMECAGTYDGSIDACKGDSGGPLVCMDANNVTYVWGVVSWGENCGKPEFPGVYTKVANYFDWISYHVGRPFISQYNV
C3b inactivation (cofactor) assay with CFH, western blot of alpha1 and alpha2 bands: lane 8 which corresponds to a sample containing the in vitro cleaved mature rCFI, is the only sample containing bands that correspond to the α1 and α2 chains
C3b inactivation assay, second western blot: The activity of the in vitro cleaved rCFI can be seen to be comparable to sCFI
